Test results published in IntAct's records for PubMed 22270917.

Target: fak1_human PTK2 (UniProt Q05397)
Sequence (Q05397 whole entry, looked up): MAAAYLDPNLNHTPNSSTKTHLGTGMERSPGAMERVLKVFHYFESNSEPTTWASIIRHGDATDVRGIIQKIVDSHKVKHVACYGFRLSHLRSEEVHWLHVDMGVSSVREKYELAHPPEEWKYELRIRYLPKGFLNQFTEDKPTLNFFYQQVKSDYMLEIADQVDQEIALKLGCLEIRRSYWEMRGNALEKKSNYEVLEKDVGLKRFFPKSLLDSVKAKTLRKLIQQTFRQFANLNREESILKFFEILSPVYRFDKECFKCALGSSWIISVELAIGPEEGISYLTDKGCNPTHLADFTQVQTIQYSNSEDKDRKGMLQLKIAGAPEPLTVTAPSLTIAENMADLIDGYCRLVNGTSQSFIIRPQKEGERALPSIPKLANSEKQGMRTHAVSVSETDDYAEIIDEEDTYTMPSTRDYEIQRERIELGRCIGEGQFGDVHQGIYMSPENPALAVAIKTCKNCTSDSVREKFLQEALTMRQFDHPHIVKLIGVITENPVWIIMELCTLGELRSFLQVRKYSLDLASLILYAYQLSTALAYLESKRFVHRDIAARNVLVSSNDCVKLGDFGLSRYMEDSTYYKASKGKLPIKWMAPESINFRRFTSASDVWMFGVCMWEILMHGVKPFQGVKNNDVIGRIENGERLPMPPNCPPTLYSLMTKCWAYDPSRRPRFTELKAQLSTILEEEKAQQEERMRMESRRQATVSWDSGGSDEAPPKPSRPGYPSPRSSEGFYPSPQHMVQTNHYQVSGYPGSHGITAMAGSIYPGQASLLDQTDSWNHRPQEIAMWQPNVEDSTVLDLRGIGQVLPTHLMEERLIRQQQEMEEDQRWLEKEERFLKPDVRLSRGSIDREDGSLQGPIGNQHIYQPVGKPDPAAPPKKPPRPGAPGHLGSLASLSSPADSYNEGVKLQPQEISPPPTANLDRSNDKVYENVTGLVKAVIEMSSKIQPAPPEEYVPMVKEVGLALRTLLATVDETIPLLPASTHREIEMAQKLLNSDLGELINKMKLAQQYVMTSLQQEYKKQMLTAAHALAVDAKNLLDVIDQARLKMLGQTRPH

| effect of a mutation on the interaction | Substance |
| --- | --- |
| disrupting interaction | Talin-1 (Gallus gallus (Chicken)), P54939 W359A |
| disrupting interaction | Talin-1 (Gallus gallus (Chicken)), P54939 A360E |
